The results in this text go back to patent publication US20250236679A1 (Chugai, published 2025).

First the molecules themselves.
T1: human DLL3 expressed on cells (human DLL3/BaF3) (human, UniProt Q9NYJ7 27-618)
T1 construct: Full-length human DLL3 on the membrane of transformed Ba/F3 cells; The ADCC assays also used NCI-H1184 small-cell lung cancer cells that express DLL3; also called Delta-like 3; NM_016941
T1 sequence: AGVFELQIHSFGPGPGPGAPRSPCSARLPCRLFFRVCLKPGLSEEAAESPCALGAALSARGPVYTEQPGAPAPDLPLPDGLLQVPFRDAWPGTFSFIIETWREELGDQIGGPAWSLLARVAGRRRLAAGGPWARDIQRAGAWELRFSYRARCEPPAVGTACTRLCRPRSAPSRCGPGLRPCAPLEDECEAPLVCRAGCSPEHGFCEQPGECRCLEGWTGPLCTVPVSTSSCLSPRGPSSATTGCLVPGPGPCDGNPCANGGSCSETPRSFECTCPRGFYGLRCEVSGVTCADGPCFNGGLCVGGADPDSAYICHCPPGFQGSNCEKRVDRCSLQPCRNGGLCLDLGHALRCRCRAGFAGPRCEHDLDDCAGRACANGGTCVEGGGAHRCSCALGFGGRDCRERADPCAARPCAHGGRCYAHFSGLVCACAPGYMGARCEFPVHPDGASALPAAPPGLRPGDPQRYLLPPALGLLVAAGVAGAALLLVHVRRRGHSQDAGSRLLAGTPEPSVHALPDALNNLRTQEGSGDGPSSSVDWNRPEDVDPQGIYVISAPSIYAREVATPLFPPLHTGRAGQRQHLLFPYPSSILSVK

T2: human DLL3-Fc (human)
T2 construct: also called soluble DLL3 protein
T2 chain: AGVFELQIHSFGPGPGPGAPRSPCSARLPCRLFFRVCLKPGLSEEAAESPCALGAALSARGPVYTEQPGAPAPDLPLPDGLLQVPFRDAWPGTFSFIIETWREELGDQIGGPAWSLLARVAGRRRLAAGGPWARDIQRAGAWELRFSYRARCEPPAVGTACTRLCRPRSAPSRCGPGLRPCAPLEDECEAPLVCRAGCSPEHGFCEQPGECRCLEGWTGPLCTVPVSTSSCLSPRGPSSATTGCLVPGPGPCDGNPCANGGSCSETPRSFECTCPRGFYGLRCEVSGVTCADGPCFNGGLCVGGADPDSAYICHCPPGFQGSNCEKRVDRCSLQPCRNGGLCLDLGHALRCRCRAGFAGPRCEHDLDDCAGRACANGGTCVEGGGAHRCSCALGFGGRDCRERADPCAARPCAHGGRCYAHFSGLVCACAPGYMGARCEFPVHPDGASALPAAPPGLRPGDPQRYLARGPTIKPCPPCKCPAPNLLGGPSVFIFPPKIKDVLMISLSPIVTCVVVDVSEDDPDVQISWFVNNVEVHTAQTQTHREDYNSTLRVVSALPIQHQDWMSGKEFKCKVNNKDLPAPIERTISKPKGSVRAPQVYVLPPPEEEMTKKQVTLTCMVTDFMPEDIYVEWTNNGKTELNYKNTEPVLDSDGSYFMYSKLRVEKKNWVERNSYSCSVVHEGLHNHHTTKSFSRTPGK

B1: DL309 human chimeric antibody (antibody, human IgG1, kappa)
heavy: not shown
light: DIVMTQSQKFMSTSVGDRVSVTCKASQNVGTNVAWYQQKPGQSPKALIYSASYRYSGVPDRFTGSGSGTDFTLTISNVQSEDLAEYFCQQYNNYPLTFGAGTKLELKRTVAAPSVFIFPPSDEQLKSGTASVVCLLNNFYPREAKVQWKVDNALQSGNSQESVTEQDSKDSTYSLSSTLTLSKADYEKHKVYACEVTHQGLSSPVTKSFNRGEC
notes: Mouse variable regions with human IgG1 constant regions; also called chimeric antibody DL309; DL309 chimeric antibody
B2: DL301 human chimeric antibody (antibody, human IgG1, kappa)
heavy: not shown
light: DIKMTQSPSSMYASLGERVTITCKASQDINSYLIWFQQKPGKSPKTLIYRTNRLVDGVPSRFSGSGSGQDYSLTISSLEYGDMGIYYCLQYDEFPFTFGSGTKLEIKRTVAAPSVFIFPPSDEQLKSGTASVVCLLNNFYPREAKVQWKVDNALQSGNSQESVTEQDSKDSTYSLSSTLTLSKADYEKHKVYACEVTHQGLSSPVTKSFNRGEC
notes: Mouse variable regions with human IgG1 constant regions; also called chimeric antibody DL301; DL301 chimeric antibody
B3: DL312 human chimeric antibody (antibody, human IgG1, kappa)
heavy: not shown
light: DIQMTQSPSSLSASLGERVSLTCRASQEISDYLSWLQQKPDGTIKRLIFAASTLDSGVPKRFSGSRSGSDFSLSISSLESEDFADYYCLQYASYPYTFGSGTKLEIKRTVAAPSVFIFPPSDEQLKSGTASVVCLLNNFYPREAKVQWKVDNALQSGNSQESVTEQDSKDSTYSLSSTLTLSKADYEKHKVYACEVTHQGLSSPVTKSFNRGEC
notes: Mouse variable regions with human IgG1 constant regions; also called chimeric antibody DL312; DL312 chimeric antibody

The first assay addresses T1, human DLL3 expressed on cells (human …). Kind of assay: flow cytometry on human DLL3/BaF3 cells, chimeric antibody 1 µg/ml. How it is done: The chimeric antibody in the culture supernatant of COS-7 was confirmed to bind to the human DLL3 protein by flow cytometry and ELISA. The chimeric antibody concentration in the culture supernatant of COS-7 was calculated by sandwich ELISA. In this concentration calculation, a human chimeric antibody known for its concentration was used as a standard. The chimeric antibody (final concentration: 1 μg/ml) was added to human DLL3/BaF3 cells suspended in a FACS buffer (PBS containing 1% fetal bovine serum). After incubation at 4° C. for 30 minutes and washing, the cells were reacted with FITC-labeled anti-human antibodies (Beckman Coulter, Inc.), and the binding of the chimeric antibody was analyzed using a flow cytometer FACSCalibur. […] None of the chimeric antibodies bound to Ba/F3 cells, which were a parental line of the forced expressing cells. Human DLL3-Fc was immobilized on a Nunc immunoplate, and the binding of each chimeric antibody to the immobilized protein was analyzed. For detecting antigen-bound chimeric antibodies, the chimeric antibody was added thereto, and alkaline phosphatase-labeled anti-human antibodies (Biosource, AHI0305) and an alkaline phosphatase substrate Sigma 104 were then added in this order. The absorbance was determined. The DL301, DL309, and DL312 chimeric antibodies bound to human DLL3-Fc in a dose-dependent manner (FIG. 8(a)).
COS-7 cells were transfected with the DL306 chimeric antibody expression vector and allowed to transiently express the chimeric antibody. The chimeric antibody in the culture supernatant of COS-7 was confirmed to bind to the human DLL3 protein by flow cytometry. The chimeric antibody concentration in the culture supernatant of COS-7 was calculated by sandwich ELISA. In this concentration calculation, a human chimeric antibody known for its concentration was used as a standard. […] After incubation at 4° C. for 30 minutes and washing, the cells were reacted with FITC-labeled anti-human antibodies (Beckman Coulter, Inc.), and the binding of the chimeric antibody was analyzed using a flow cytometer FACSCalibur.
On the technique in general: Flow cytometry measures light scatter and fluorescence of single cells or particles in a stream.
As to B1, the binding result was “binds”.

Turning to B2, the binding result is “binds”.

Take B3: the binding result is recorded as “binds”.

The target of the next assay is T2, human DLL3-Fc. Kind of assay: ELISA, immobilized human DLL3-Fc. How it is done:
The competition of a chimeric antibody and a mouse antibody for binding to the antigen molecule was analyzed by ELISA (FIG. 8 (b)). Human DLL3-Fc was added at 10 ng/well to a Nunc immunoplate and immobilized thereon. A mixture (final concentration: 50 ng/ml) of the chimeric antibody and the appropriately diluted mouse antibody was added to the DLL3-Fc protein-immobilized plate. The plate was incubated at room temperature for 1 hour and then washed. Alkaline phosphatase-labeled anti-human antibodies were added thereto and incubated. After the incubation, Sigma 104 was added thereto, and the absorbance was measured. The binding of the chimeric antibody to the antigen molecule competed with that of the original mouse monoclonal antibody thereto.
Regarding B1, the binding result is “binds”.

B2: the binding result is reported as “binds”.

Take B3: the binding result is given as “binds”.
